Data on 3 molecules can be found in patent US20030091565A1 (Human Genome Sciences, published 2003).

No end group written: not given here.

Experiment [1] concerns the target T1, B lymphocyte stimulator protein (BLyS), recombinant (human, UniProt Q9Y275 134-285, limits assumed, biotinylated in the phage screening and phage ELISA; unlabeled in fluorescence anisotropy).
T1 construct: also called biotinylated BLyS; b-BLyS
The experiment in a line: not stated there (fluorescence anisotropy elsewhere). Background: Fluorescence polarisation rises when a labelled molecule tumbles more slowly, as on binding a larger partner.

The target of experiment [2] is T1, B lymphocyte stimulator protein (BLyS), …. The experiment can be described thus: not stated there.
Experiment [3] shares this target. The experiment in a line: fluorescence anisotropy.
Procedure: Dissociation constants between the synthetic peptides and BLyS (free in solution) were measured by fluorescence anisotropy (FA). In these experiments, the concentration of the fluorescein-labeled peptide is held constant and the BLyS protein concentration was varied. The observed change in anisotropy is fit to the following equation via nonlinear regression to obtain the apparent KD.
Binding reactions containing 50 nM fluorescein-labeled peptide and a varied concentration of BLyS in a volume between 10 and 20 μL per well were performed in 384 well microplates. Reactions were assayed using a Tecan Polarion fluorescence polarization plate reader. Cross-competition studies between peptides were performed using 50 nM fluorescein-labeled peptide and 1-2 μM BLyS in the presence and absence of 100 μM unlabeled peptide. […] Other buffers in which dissociation constants of BLyS Binding polypeptides were detremined include: [pH 6.0, 0.01% Tween], [pH 6.0, 0.1% gelatin], [pH5.0, 0.01% Tween], [pH9.0, 0.1% Tween], [pH6.0, 15% ethylene glycol, 0.01 % Tween], ], [pH5.0, 15% ethylene glycol, 0.01 % Tween], and [pH9.0, 15% ethylene glycol, 0.01 % Tween].

T1 sequence (Q9Y275 134-285 limits assumed): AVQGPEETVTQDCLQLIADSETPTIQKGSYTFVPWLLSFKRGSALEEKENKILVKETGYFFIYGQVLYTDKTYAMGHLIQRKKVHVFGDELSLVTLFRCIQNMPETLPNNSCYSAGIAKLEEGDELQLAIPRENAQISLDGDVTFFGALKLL

Take Ac-WTDSLTGLWFPDGGPGPEGGGK [DX221]: the Kd in experiment [1] is 3000 nM.
As for VPFCDLLTKHCFEA (on M13 phage; also called TN8-01-B07) [453-01-B07], the Kd in experiment [2] worked out at 700 nM.

B1: DX876 (peptide)
peptide: Ac-WYDPLTKLWLGGK(fitc)
notes: 10-mer core (positions 3-12 of the 14-mer) with GGK linker
For the molecule B1, in experiment [3], the Kd was 171 nM.

As usually defined, the Kd is the constant that tells how readily two partners part at equilibrium.
